Data taken from the RNAGym collection of RNA variant scans (doi:10.1093/molbev/msab373).

B1: Azoarcus group I ribozyme (parent)
chain: GUGCCUUGCGCCGGGAAACCACGCAAGGGAUGGUGUCAAAUUCGGCGAAACCUAAGCGCCCGCCCGGGCGUAUGGCAACGCCGAGCCAAGCUUCGGCGCCUGCGCCGAUGAAGGUGUAGAGACUAGACGGCACCCACCUAAGGCAAACGCUAUGGUGAAGGCAUAGUCCAGGGAGUGGCGAAAGUCACACAAACCGG

Variants of: B1
Assay: reverse-splicing fitness (ratio to wild type); higher = more active; in vitro selection; Mg2+ level not given
In short: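 An in vitro group I ribozyme library with randomized positions was T7-transcribed and gel-purified. In triplicate, 10 pmol RNA in EPPS pH 7.5 was reacted with 50 pmoles of a 30-nt RNA substrate for 1 h at 37 °C across several added MgCl2 levels (1–48 mM), then stopped with EDTA. Products were reverse transcribed from a substrate-complementary primer, PCR-amplified and sequenced (HiSeq 4000). Fitness is a variant's read proportion after selection over that before, normalised to wild type.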

Point of comparison: GUGCCUUGCGCCGGGAAACCACGCAAGGGAUGGUGUCAAAUUCGGCGAAACCUAAGCGCCCGCCCGGGCGUAUGGCAACGCAGAGCCAAGCUUCGGCGCCUGCGCCGAUGAAGGUGUAGUGACUAGACGGCACCCACCUAAGGCCAACGAUAUGGUGAAGGCAUAGUCUAGGGAGCGGCGAAAGUCACACAAACCGG [C82A A120U A145C C150A C169U U176C], reverse-splicing fitness 0.00188. Against it:
- GUGCCUUGCGCCGGGAAACCACGCAAGGGAUGGUGUCAAAUUCGGCGAAACCUAAGCGCCCGCCCGGGCGUAUGGCAACGCAGAGCCAAGCUUCGGCGCCUGCGCCGAUGAAGGUGUAGUGACUAGACGGCACCCACCUAAGGCCAACGAUAUGGUGAAGGCAUAGUCUAGGGAGAGGCGAAAGUCACACAAACCGG [C82A A120U A145C C150A C169U U176A] — higher, 0.00259
- GUGCCUUGCGCCGGGAAACCACGCAAGGGAUGGUGUCAAAUUCGGCGAAACCUAAGCGCCCGCCCGGGCGUAUGGCAACGCAGAGCCAAGCUUCGGCGCCUGCGCCGAUGAAGGUGUAGUGACUAGACGGCACCCACCUAAGGCCAACGAUAUGGUGAAGGCAUAGUCUAGGGAGGGGCGAAAGUCACACAAACCGG [C82A A120U A145C C150A C169U U176G] — higher, 0.00218
- GUGCCUUGCGCCGGGAAACCACGCAAGGGAUGGUGUCAAAUUCGGCGAAACCUAAGCGCCCGCCCGGGCGUAUGGCAACGCAGAGCCAAGCUUCGGCGCCUGCGCCGAUGAAGGUGUAGUGACUAGACGGCACCCACCUAAGGCCAACGAUAUGGUGAAGGCAUAGUCCAGGGAGAGGCGAAAGUCACACAAACCGG [C82A A120U A145C C150A U176A] — higher, 0.00439
- GUGCCUUGCGCCGGGAAACCACGCAAGGGAUGGUGUCAAAUUCGGCGAAACCUAAGCGCCCGCCCGGGCGUAUGGCAACGCAGAGCCAAGCUUCGGCGCCUGCGCCGAUGAAGGUGUAGUGACUAGACGGCACCCACCUAAGGCCAACGAUAUGGUGAAGGCAUAGUCCAGGGAGCGGCGAAAGUCACACAAACCGG [C82A A120U A145C C150A U176C] — higher, 0.0051
- GUGCCUUGCGCCGGGAAACCACGCAAGGGAUGGUGUCAAAUUCGGCGAAACCUAAGCGCCCGCCCGGGCGUAUGGCAACGCAGAGCCAAGCUUCGGCGCCUGCGCCGAUGAAGGUGUAGUGACUAGACGGCACCCACCUAAGGCCAACGAUAUGGUGAAGGCAUAGUCCAGGGAGGGGCGAAAGUCACACAAACCGG [C82A A120U A145C C150A U176G] — higher, 0.00246
- GUGCCUUGCGCCGGGAAACCACGCAAGGGAUGGUGUCAAAUUCGGCGAAACCUAAGCGCCCGCCCGGGCGUAUGGCAACGCAGAGCCAAGCUUCGGCGCCUGCGCCGAUGAAGGUGUAGUGACUAGACGGCACCCACCUAAGGCCAACGGUAUGGUGAAGGCAUAGUCCAGGGAGUGGCGAAAGUCACACAAACCGG [C82A A120U A145C C150G] — higher, 0.0172
- GUGCCUUGCGCCGGGAAACCACGCAAGGGAUGGUGUCAAAUUCGGCGAAACCUAAGCGCCCGCCCGGGCGUAUGGCAACGCAGAGCCAAGCUUCGGCGCCUGCGCCGAUGAAGGUGUAGUGACUAGACGGCACCCACCUAAGGCCAACGGUAUGGUGAAGGCAUAGUCAAGGGAGUGGCGAAAGUCACACAAACCGG [C82A A120U A145C C150G C169A] — higher, 0.00259
- GUGCCUUGCGCCGGGAAACCACGCAAGGGAUGGUGUCAAAUUCGGCGAAACCUAAGCGCCCGCCCGGGCGUAUGGCAACGCAGAGCCAAGCUUCGGCGCCUGCGCCGAUGAAGGUGUAGUGACUAGACGGCACCCACCUAAGGCCAACGGUAUGGUGAAGGCAUAGUCAAGGGAGAGGCGAAAGUCACACAAACCGG [C82A A120U A145C C150G C169A U176A] — higher, 0.00254
- GUGCCUUGCGCCGGGAAACCACGCAAGGGAUGGUGUCAAAUUCGGCGAAACCUAAGCGCCCGCCCGGGCGUAUGGCAACGCAGAGCCAAGCUUCGGCGCCUGCGCCGAUGAAGGUGUAGUGACUAGACGGCACCCACCUAAGGCCAACGGUAUGGUGAAGGCAUAGUCAAGGGAGCGGCGAAAGUCACACAAACCGG [C82A A120U A145C C150G C169A U176C] — lower, 0.00155
- GUGCCUUGCGCCGGGAAACCACGCAAGGGAUGGUGUCAAAUUCGGCGAAACCUAAGCGCCCGCCCGGGCGUAUGGCAACGCAGAGCCAAGCUUCGGCGCCUGCGCCGAUGAAGGUGUAGUGACUAGACGGCACCCACCUAAGGCCAACGGUAUGGUGAAGGCAUAGUCAAGGGAGGGGCGAAAGUCACACAAACCGG [C82A A120U A145C C150G C169A U176G] — higher, 0.00213
- GUGCCUUGCGCCGGGAAACCACGCAAGGGAUGGUGUCAAAUUCGGCGAAACCUAAGCGCCCGCCCGGGCGUAUGGCAACGCAGAGCCAAGCUUCGGCGCCUGCGCCGAUGAAGGUGUAGUGACUAGACGGCACCCACCUAAGGCCAACGGUAUGGUGAAGGCAUAGUCGAGGGAGUGGCGAAAGUCACACAAACCGG [C82A A120U A145C C150G C169G] — higher, 0.0026
- GUGCCUUGCGCCGGGAAACCACGCAAGGGAUGGUGUCAAAUUCGGCGAAACCUAAGCGCCCGCCCGGGCGUAUGGCAACGCAGAGCCAAGCUUCGGCGCCUGCGCCGAUGAAGGUGUAGUGACUAGACGGCACCCACCUAAGGCCAACGGUAUGGUGAAGGCAUAGUCGAGGGAGAGGCGAAAGUCACACAAACCGG [C82A A120U A145C C150G C169G U176A] — higher, 0.00256
- GUGCCUUGCGCCGGGAAACCACGCAAGGGAUGGUGUCAAAUUCGGCGAAACCUAAGCGCCCGCCCGGGCGUAUGGCAACGCAGAGCCAAGCUUCGGCGCCUGCGCCGAUGAAGGUGUAGUGACUAGACGGCACCCACCUAAGGCCAACGGUAUGGUGAAGGCAUAGUCGAGGGAGCGGCGAAAGUCACACAAACCGG [C82A A120U A145C C150G C169G U176C] — higher, 0.00192
- GUGCCUUGCGCCGGGAAACCACGCAAGGGAUGGUGUCAAAUUCGGCGAAACCUAAGCGCCCGCCCGGGCGUAUGGCAACGCAGAGCCAAGCUUCGGCGCCUGCGCCGAUGAAGGUGUAGUGACUAGACGGCACCCACCUAAGGCCAACGGUAUGGUGAAGGCAUAGUCGAGGGAGGGGCGAAAGUCACACAAACCGG [C82A A120U A145C C150G C169G U176G] — higher, 0.00211
